# B1: Refmab #6 (antibody, V domains shown)
# VH: QVQLQQPGAEVVKPGASVKMSCKASGYTFTSYYIHWIKQTPGQGLEWVGVIYPGNDDISYNQKFQGKATLTADKSSTTAYMQLSSLTSEDSAVYYCAREVRLRYFDVWGQGTTVTVSS
# VL: EIVLTQSPGSLAVSPGERVTMSCKSSQSVFFSSSQKNYLAWYQQIPGQSPRLLIYWASTRESGVPDRFTGSGSGTDFTLTISSVQPEDLAIYYCHQYLSSRTFGQGTKLEIK
# notes: Full-length format is human IgG1 Fc silent (PG-LALA); also made as Fab; The alanine scan used IgG or Fab
# B2: Refmab #6 (antibody, human IgG1, V domains shown)
# VH: B1 VH
# VL: B1 VL
# B3: Refmab #6 (antibody, V domains shown)
# VH: B1 VH
# VL: B1 VL
# notes: The alanine scan used IgG or Fab
# B4: Refmab #5 (antibody, V domains shown)
# VH: QVQLVQSGAEVKKPGASVKVSCKASGYTFTNYDINWVRQAPGQGLEWIGWIYPGDGSTKYNEKFKAKATLTADTSTSTAYMELRSLRSDDTAVYYCASGYEDAMDYWGQGTTVTVSS
# VL: DIQMTQSPSSLSASVGDRVTINCKASQDINSYLSWFQQKPGKAPKTLIYRANRLVDGVPSRFSGSGSGQDYTLTISSLQPEDFATYYCLQYDEFPLTFGGGTKVEIK
# notes: as for B1
# B5: Refmab #5 (antibody, human IgG1, V domains shown)
# VH: B4 VH
# VL: B4 VL
# B6: Refmab #5 (antibody, V domains shown)
# VH: B4 VH
# VL: B4 VL
# notes: as for B3
# Tests used:
# human CD33 K52A = human CD33 K52A (human, UniProt P20138 18-364); test: alanine scan, flow cytometry, HEK293-T;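 further: antibody binding to each alanine-substituted CD33 mutant expressed transiently in HEK293-T, read as fluorescence minus background, mean of duplicates, relative to wild-type CD33 set as 100%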
# Chain of human CD33 K52A (P20138 18-364 K52A limits assumed): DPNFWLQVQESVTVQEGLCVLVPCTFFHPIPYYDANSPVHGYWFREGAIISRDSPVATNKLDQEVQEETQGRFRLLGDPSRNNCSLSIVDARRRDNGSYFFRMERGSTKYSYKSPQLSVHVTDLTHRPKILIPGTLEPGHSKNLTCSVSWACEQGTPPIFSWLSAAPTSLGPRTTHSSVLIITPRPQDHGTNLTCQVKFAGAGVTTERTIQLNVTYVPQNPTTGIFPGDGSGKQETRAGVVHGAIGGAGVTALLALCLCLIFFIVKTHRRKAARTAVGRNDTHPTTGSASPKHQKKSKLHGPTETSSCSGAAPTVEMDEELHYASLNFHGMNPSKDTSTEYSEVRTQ
# human CD33 E84A = human CD33 E84A (human, UniProt P20138 18-364); test: alanine scan, flow cytometry, HEK293-T;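 further: antibody binding to each alanine-substituted CD33 mutant expressed transiently in HEK293-T, read as fluorescence minus background, mean of duplicates, relative to wild-type CD33 set as 100%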
# Chain of human CD33 E84A (P20138 18-364 E84A limits assumed): as the sequence (P20138 18-364 K52A limits assumed) above, with A35K, E67A counted along it
# human CD33 L93A = human CD33 L93A (human, UniProt P20138 18-364); test: alanine scan, flow cytometry, HEK293-T;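 further: antibody binding to each alanine-substituted CD33 mutant expressed transiently in HEK293-T, read as fluorescence minus background, mean of duplicates, relative to wild-type CD33 set as 100%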
# Chain of human CD33 L93A (P20138 18-364 L93A limits assumed): as the sequence (P20138 18-364 K52A limits assumed) above, with A35K, L76A counted along it
# human CD33 Y116A = human CD33 Y116A (human, UniProt P20138 18-364); test: alanine scan, flow cytometry, HEK293-T;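 further: antibody binding to each alanine-substituted CD33 mutant expressed transiently in HEK293-T, read as fluorescence minus background, mean of duplicates, relative to wild-type CD33 set as 100%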
# Chain of human CD33 Y116A (P20138 18-364 Y116A limits assumed): as the sequence (P20138 18-364 K52A limits assumed) above, with A35K, Y99A counted along it
# human CD33 R111A = human CD33 R111A (human, UniProt P20138 18-364); test: alanine scan, flow cytometry, HEK293-T
# Chain of human CD33 R111A (P20138 18-364 R111A limits assumed): as the sequence (P20138 18-364 K52A limits assumed) above, with A35K, R94A counted along it
# human CD33 D51A = human CD33 D51A (human, UniProt P20138 18-364); test: alanine scan, flow cytometry, HEK293-T
# Chain of human CD33 D51A (P20138 18-364 D51A limits assumed): as the sequence (P20138 18-364 K52A limits assumed) above, with D34A, A35K counted along it
# human CD33 I105A = human CD33 I105A (human, UniProt P20138 18-364); test: alanine scan, flow cytometry, HEK293-T
# Chain of human CD33 I105A (P20138 18-364 I105A limits assumed): as the sequence (P20138 18-364 K52A limits assumed) above, with A35K, I88A counted along it
# human CD33 L92A = human CD33 L92A (human, UniProt P20138 18-364); test: alanine scan, flow cytometry, HEK293-T
# Chain of human CD33 L92A (P20138 18-364 L92A limits assumed): as the sequence (P20138 18-364 K52A limits assumed) above, with A35K, L75A counted along it
# human CD33 P46A = human CD33 P46A (human, UniProt P20138 18-364); test: alanine scan, flow cytometry, HEK293-T
# Chain of human CD33 P46A (P20138 18-364 P46A limits assumed): as the sequence (P20138 18-364 K52A limits assumed) above, with P29A, A35K counted along it
# human CD33 P72A = human CD33 P72A (human, UniProt P20138 18-364); test: alanine scan, flow cytometry, HEK293-T
# Chain of human CD33 P72A (P20138 18-364 P72A limits assumed): as the sequence (P20138 18-364 K52A limits assumed) above, with A35K, P55A counted along it
# human CD33 D112A = human CD33 D112A (human, UniProt P20138 18-364); test: alanine scan, flow cytometry, HEK293-T
# Chain of human CD33 D112A (P20138 18-364 D112A limits assumed): as the sequence (P20138 18-364 K52A limits assumed) above, with A35K, D95A counted along it
# human CD33 I66A = human CD33 I66A (human, UniProt P20138 18-364); test: alanine scan, flow cytometry, HEK293-T
# Chain of human CD33 I66A (P20138 18-364 I66A limits assumed): as the sequence (P20138 18-364 K52A limits assumed) above, with A35K, I49A counted along it
# human CD33 P132D = human CD33 P132D (human, UniProt P20138 18-364); test: flow cytometry, transfected cells, IgG;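 further: CD33 point mutants transiently expressed in HEK293-T cells, antibody binding read by fluorescence, background subtracted and normalized to wild-type CD33 as 100%, duplicates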
# Chain of human CD33 P132D (P20138 18-364 P132D limits assumed): as the sequence (P20138 18-364 K52A limits assumed) above, with A35K, P115D counted along it
# Description: (§1) An alanine scan on human CD33 was performed to the determine the residues on CD33 that are involved in binding to the antibodies investigated. […] Briefly, a mutation library of CD33 was created by high-throughput, site-directed mutagenesis. Each residue was individually mutated to alanine, with alanine codons mutated to serine. The mutant library was arrayed in 384-well microplates and transiently transfected into HEK293-T. Following transfection, cells were incubated with the indicated antibodies (IgG or Fab) at concentrations pre-determined using an independent immunofluorescence titration curve on wild type CD33. […] Binding of each antibody to each mutant clone was determined in duplicates. For each point, background fluorescence was subtracted from the raw data, which were then normalized to antibody reactivity with wild type CD33.
# (§2) Antibodies were screened for binding to the human CD33 variants in IgG format. […] For each mutation, background fluorescence was subtracted from the raw data, which were then normalized to antibody reactivity with wild-type CD33.
# human CD33 P132K = human CD33 P132K (human, UniProt P20138 18-364); test: flow cytometry, transfected cells, IgG;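 further: CD33 point mutants transiently expressed in HEK293-T cells, antibody binding read by fluorescence, background subtracted and normalized to wild-type CD33 as 100%, duplicates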
# Chain of human CD33 P132K (P20138 18-364 P132K limits assumed): as the sequence (P20138 18-364 K52A limits assumed) above, with A35K, P115K counted along it
# Description: as §1, §2
# human CD33 K52D = human CD33 K52D (human, UniProt P20138 18-364); test: flow cytometry, transfected cells, IgG;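 further: CD33 point mutants transiently expressed in HEK293-T cells, antibody binding read by fluorescence, background subtracted and normalized to wild-type CD33 as 100%, duplicates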
# Chain of human CD33 K52D (P20138 18-364 K52D limits assumed): as the sequence (P20138 18-364 K52A limits assumed) above, with A35D counted along it
# Description: as §1, §2
# human CD33 F177A = biological target: T1, human CD33 F177A (human, UniProt P20138 18-364); test: alanine scan, flow cytometry, HEK293-T
# T1 construct: alanine scan clone, transfected HEK293-T
# T1 sequence (P20138 18-364 F177A limits assumed): as the sequence (P20138 18-364 K52A limits assumed) above, with A35K, F160A counted along it
# human CD33 K146A = biological target: T2, human CD33 K146A (human, UniProt P20138 18-364); test: alanine scan, flow cytometry, HEK293-T
# T2 construct: alanine scan clone, transfected HEK293-T
# T2 sequence (P20138 18-364 K146A limits assumed): as the sequence (P20138 18-364 K52A limits assumed) above, with A35K, K129A counted along it
# human CD33 K159A = biological target: T3, human CD33 K159A (human, UniProt P20138 18-364); test: alanine scan, flow cytometry, HEK293-T
# T3 construct: alanine scan clone, transfected HEK293-T
# T3 sequence (P20138 18-364 K159A limits assumed): as the sequence (P20138 18-364 K52A limits assumed) above, with A35K, K142A counted along it
# human CD33 H143A = biological target: T4, human CD33 H143A (human, UniProt P20138 18-364); test: alanine scan, flow cytometry, HEK293-T
# T4 construct: alanine scan clone, transfected HEK293-T
# T4 sequence (P20138 18-364 H143A limits assumed): as the sequence (P20138 18-364 K52A limits assumed) above, with A35K, H126A counted along it
# human CD33 A183S = biological target: T5, human CD33 A183S (human, UniProt P20138 18-364); test: alanine scan, flow cytometry, HEK293-T
# T5 construct: alanine scan clone, transfected HEK293-T
# T5 sequence (P20138 18-364 A183S limits assumed): as the sequence (P20138 18-364 K52A limits assumed) above, with A35K, A166S counted along it
# human CD33 R190A = biological target: T6, human CD33 R190A (human, UniProt P20138 18-364); test: alanine scan, flow cytometry, HEK293-T
# T6 construct: alanine scan clone, transfected HEK293-T
# T6 sequence (P20138 18-364 R190A limits assumed): as the sequence (P20138 18-364 K52A limits assumed) above, with A35K, R173A counted along it
# human CD33 P175A = biological target: T7, human CD33 P175A (human, UniProt P20138 18-364); test: alanine scan, flow cytometry, HEK293-T
# T7 construct: alanine scan clone, transfected HEK293-T
# T7 sequence (P20138 18-364 P175A limits assumed): as the sequence (P20138 18-364 K52A limits assumed) above, with A35K, P158A counted along it
# human CD33 Q171A = biological target: T8, human CD33 Q171A (human, UniProt P20138 18-364); test: alanine scan, flow cytometry, HEK293-T
# T8 construct: alanine scan clone, transfected HEK293-T
# T8 sequence (P20138 18-364 Q171A limits assumed): as the sequence (P20138 18-364 K52A limits assumed) above, with A35K, Q154A counted along it
# human CD33 R122A = biological target: T9, human CD33 R122A (human, UniProt P20138 18-364); test: alanine scan, flow cytometry, HEK293-T
# T9 construct: alanine scan clone, transfected HEK293-T
# T9 sequence (P20138 18-364 R122A limits assumed): as the sequence (P20138 18-364 K52A limits assumed) above, with A35K, R105A counted along it
# human CD33 W179A = biological target: T10, human CD33 W179A (human, UniProt P20138 18-364); test: alanine scan, flow cytometry, HEK293-T
# T10 construct: alanine scan clone, transfected HEK293-T
# T10 sequence (P20138 18-364 W179A limits assumed): as the sequence (P20138 18-364 K52A limits assumed) above, with A35K, W162A counted along it
# human CD33 E154A = biological target: T11, human CD33 E154A (human, UniProt P20138 18-364); test: alanine scan, flow cytometry, HEK293-T
# T11 construct: alanine scan clone, transfected HEK293-T
# T11 sequence (P20138 18-364 E154A limits assumed): as the sequence (P20138 18-364 K52A limits assumed) above, with A35K, E137A counted along it
# human CD33 G151A = biological target: T12, human CD33 G151A (human, UniProt P20138 18-364); test: alanine scan, flow cytometry, HEK293-T
# T12 construct: alanine scan clone, transfected HEK293-T
# T12 sequence (P20138 18-364 G151A limits assumed): as the sequence (P20138 18-364 K52A limits assumed) above, with A35K, G134A counted along it
# human CD33 A168S = biological target: T13, human CD33 A168S (human, UniProt P20138 18-364); test: alanine scan, flow cytometry, HEK293-T
# T13 construct: alanine scan clone, transfected HEK293-T
# T13 sequence (P20138 18-364 A168S limits assumed): as the sequence (P20138 18-364 K52A limits assumed) above, with A35K, A151S counted along it
# human CD33 S181A = biological target: T14, human CD33 S181A (human, UniProt P20138 18-364); test: alanine scan, flow cytometry, HEK293-T
# T14 construct: alanine scan clone, transfected HEK293-T
# T14 sequence (P20138 18-364 S181A limits assumed): as the sequence (P20138 18-364 K52A limits assumed) above, with A35K, S164A counted along it
# human CD33 S166A = biological target: T15, human CD33 S166A (human, UniProt P20138 18-364); test: alanine scan, flow cytometry, HEK293-T
# T15 construct: alanine scan clone, transfected HEK293-T
# T15 sequence (P20138 18-364 S166A limits assumed): as the sequence (P20138 18-364 K52A limits assumed) above, with A35K, S149A counted along it
# human CD33 C163A = biological target: T16, human CD33 C163A (human, UniProt P20138 18-364); test: alanine scan, flow cytometry, HEK293-T
# T16 construct: alanine scan clone, transfected HEK293-T
# T16 sequence (P20138 18-364 C163A limits assumed): as the sequence (P20138 18-364 K52A limits assumed) above, with A35K, C146A counted along it
# human CD33 K126A = biological target: T17, human CD33 K126A (human, UniProt P20138 18-364); test: alanine scan, flow cytometry, HEK293-T
# T17 construct: alanine scan clone, transfected HEK293-T
# T17 sequence (P20138 18-364 K126A limits assumed): as the sequence (P20138 18-364 K52A limits assumed) above, with A35K, K109A counted along it
# human CD33 C169A = biological target: T18, human CD33 C169A (human, UniProt P20138 18-364); test: alanine scan, flow cytometry, HEK293-T
# T18 construct: alanine scan clone, transfected HEK293-T
# T18 sequence (P20138 18-364 C169A limits assumed): as the sequence (P20138 18-364 K52A limits assumed) above, with A35K, C152A counted along it
# human CD33 S194A = biological target: T19, human CD33 S194A (human, UniProt P20138 18-364); test: alanine scan, flow cytometry, HEK293-T
# T19 construct: alanine scan clone, transfected HEK293-T
# T19 sequence (P20138 18-364 S194A limits assumed): as the sequence (P20138 18-364 K52A limits assumed) above, with A35K, S177A counted along it
# human CD33 S186A = biological target: T20, human CD33 S186A (human, UniProt P20138 18-364); test: alanine scan, flow cytometry, HEK293-T
# T20 construct: alanine scan clone, transfected HEK293-T
# T20 sequence (P20138 18-364 S186A limits assumed): as the sequence (P20138 18-364 K52A limits assumed) above, with A35K, S169A counted along it
# human CD33 G172A = biological target: T21, human CD33 G172A (human, UniProt P20138 18-364); test: alanine scan, flow cytometry, HEK293-T
# T21 construct: alanine scan clone, transfected HEK293-T
# T21 sequence (P20138 18-364 G172A limits assumed): as the sequence (P20138 18-364 K52A limits assumed) above, with A35K, G155A counted along it
Binder,Mean % WT Binding (human CD33 K52A) [% WT binding],Mean % WT Binding (human CD33 E84A) [% WT binding],Mean % WT Binding (human CD33 L93A) [% WT binding],Mean % WT Binding (human CD33 Y116A) [% WT binding],Mean % WT Binding (human CD33 R111A) [% WT binding],Mean % WT Binding (human CD33 D51A) [% WT binding],Mean % WT Binding (human CD33 I105A) [% WT binding],Mean % WT Binding (human CD33 L92A) [% WT binding],Mean % WT Binding (human CD33 P46A) [% WT binding],Mean % WT Binding (human CD33 P72A) [% WT binding],Mean % WT Binding (human CD33 D112A) [% WT binding],Mean % WT Binding (human CD33 I66A) [% WT binding],Mean % WT Binding (human CD33 P132D) [%],Mean % WT Binding (human CD33 P132K) [%],Mean % WT Binding (human CD33 K52D) [%],Mean % WT Binding (human CD33 F177A) [% WT binding],Mean % WT Binding (human CD33 K146A) [% WT binding],Mean % WT Binding (human CD33 K159A) [% WT binding],Mean % WT Binding (human CD33 H143A) [% WT binding],Mean % WT Binding (human CD33 A183S) [% WT binding],other results
B1,77,97.4,94.2,5,102,61.7,25.5,85.3,49.3,92.3,51.6,93.7,–,–,–,–,–,–,–,–,–
B2,–,–,–,–,–,–,–,–,–,–,–,–,87.6,2.2,126,–,–,–,–,–,–
B3,–,–,–,–,–,–,–,–,–,–,–,–,–,–,–,48.7,116,123,97.5,92.3,Mean % WT Binding (human CD33 R190A): 112 % WT binding; Mean % WT Binding (human CD33 P175A): 98.6 % WT binding; Mean % WT Binding (human CD33 Q171A): 99.6 % WT binding; Mean % WT Binding (human CD33 R122A): 106 % WT binding; Mean % WT Binding (human CD33 W179A): 96.7 % WT binding; Mean % WT Binding (human CD33 E154A): 86.2 % WT binding; Mean % WT Binding (human CD33 G151A): 91.1 % WT binding; Mean % WT Binding (human CD33 A168S): 100 % WT binding; Mean % WT Binding (human CD33 S181A): 102 % WT binding; Mean % WT Binding (human CD33 S166A): 108 % WT binding; Mean % WT Binding (human CD33 C163A): 73.9 % WT binding; Mean % WT Binding (human CD33 K126A): 134 % WT binding; Mean % WT Binding (human CD33 C169A): 76.2 % WT binding; Mean % WT Binding (human CD33 S194A): 92.4 % WT binding; Mean % WT Binding (human CD33 S186A): 110 % WT binding; Mean % WT Binding (human CD33 G172A): 76.8 % WT binding
B4,11.9,141,134,16,118,105,41.7,127,79.1,116,61.2,105,–,–,–,–,–,–,–,–,–
B5,–,–,–,–,–,–,–,–,–,–,–,–,90.5,97.1,3.2,–,–,–,–,–,–
B6,–,–,–,–,–,–,–,–,–,–,–,–,–,–,–,57.3,149,148,128,101,Mean % WT Binding (human CD33 R190A): 112 % WT binding; Mean % WT Binding (human CD33 P175A): 130 % WT binding; Mean % WT Binding (human CD33 Q171A): 105 % WT binding; Mean % WT Binding (human CD33 R122A): 85.7 % WT binding; Mean % WT Binding (human CD33 W179A): 133 % WT binding; Mean % WT Binding (human CD33 E154A): 112 % WT binding; Mean % WT Binding (human CD33 G151A): 99.6 % WT binding; Mean % WT Binding (human CD33 A168S): 103 % WT binding; Mean % WT Binding (human CD33 S181A): 128 % WT binding; Mean % WT Binding (human CD33 S166A): 114 % WT binding; Mean % WT Binding (human CD33 C163A): 62 % WT binding; Mean % WT Binding (human CD33 K126A): 134 % WT binding; Mean % WT Binding (human CD33 C169A): 101 % WT binding; Mean % WT Binding (human CD33 S194A): 90.4 % WT binding; Mean % WT Binding (human CD33 S186A): 112 % WT binding; Mean % WT Binding (human CD33 G172A): 92.7 % WT binding
